Key:
Assay in all cases: cell-based or functional assay
[1] = target: T1, Recombinant human IL-23 (human, UniProt P29460 23-328)
T1 sequence 1: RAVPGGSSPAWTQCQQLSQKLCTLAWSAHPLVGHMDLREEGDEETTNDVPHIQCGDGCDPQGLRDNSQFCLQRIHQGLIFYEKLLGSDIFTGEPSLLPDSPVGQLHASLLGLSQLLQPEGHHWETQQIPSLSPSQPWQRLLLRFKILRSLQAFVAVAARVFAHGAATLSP
T1 sequence 2: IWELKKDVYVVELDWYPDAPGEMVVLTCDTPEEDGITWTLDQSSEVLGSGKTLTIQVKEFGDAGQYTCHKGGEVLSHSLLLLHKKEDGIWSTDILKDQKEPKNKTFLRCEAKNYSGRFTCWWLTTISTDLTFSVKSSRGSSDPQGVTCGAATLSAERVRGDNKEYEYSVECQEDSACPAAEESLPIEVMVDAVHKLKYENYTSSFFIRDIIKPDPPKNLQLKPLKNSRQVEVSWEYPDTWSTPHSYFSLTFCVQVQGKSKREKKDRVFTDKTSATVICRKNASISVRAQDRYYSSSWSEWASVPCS

[2] = target: cynomolgus IL-23 (cynomolgus, UniProt H6WS56 20-189)
[3] = target: T1, Recombinant human IL-23; remark: listed apart in the source

B1: Control Antibody 4 (anti-IL-23A monoclonal antibody) (IL-23A (1)) (antibody, V domains shown)
VH: QVQLVQSGAEVKKPGSSVKVSCKASGYTFTDQTIHWMRQAPGQGLEWIGYIYPRDDSPKYNENFKGKVTITADKSTSTAYMELSSLRSEDTAVYYCAIPDRSGYAWFIYWGQGTLVTVSS
VL: DIQMTQSPSSLSASVGDRVTITCKASRDVAIAVAWYQQKPGKVPKLLIYWASTRHTGVPSRFSGSGSRTDFTLTISSLQPEDVADYFCHQYSSYPFTFGSGTKLEIK
- IC50, STAT3-luciferase reporter in DB lymphoblast B cells [1]: 0.079 nM
- IC90, STAT3-luciferase reporter in DB lymphoblast B cells [1]: 0.634 nM
- IC50, IL-23-induced mouse IL-17 release from mouse splenocytes [2]: 0.064 nM
- IC90, IL-23-induced mouse IL-17 release from mouse splenocytes [2]: 0.331 nM
- IC50, IL-23-induced mouse IL-17 release from mouse splenocytes [3]: 0.084 nM
- IC90, IL-23-induced mouse IL-17 release from mouse splenocytes [3]: 0.366 nM
